Test results reported in US10463750.
Blank lines part the entries; values can stand above or below the substance they belong to.

Experiments:
[1] = biological target: 2C TCR (transgenic T cell receptor of CD8+ 2C T cells) (mouse); assay: cell-based or functional assay
[2] = biological target: Pmel TCR (tumor-antigen gp-100 specific transgenic TCR of CD8+ Pmel T cells) (mouse); assay: cell-based or functional assay

1B2/CD19 specific re-direction lysis of T2 cells, pre-targeted protocol, 51Cr release [1]: 20 to 25%
PKH26/67 double positive cell conjugates (2C/T2 conjugate formation) [1]: 19.5%
re-directional specific lysis window of T2 cells (1B2/CD19 minus 1B2 beads), co-culture, E:T 1:1, 51Cr release [1]: 30%
re-directional specific lysis window of T2 cells (1B2/CD19 minus 1B2 beads), co-culture, E:T 2:1, 51Cr release [1]: 20%
re-directional specific lysis window of T2 cells (1B2/CD19 minus 1B2 beads), co-culture, E:T 5:1, 51Cr release [1]: 10%
specific lysis of T2 cells, pre-targeted protocol (FIG. 4B), 51Cr release [1]: 20%
Substance: 1B2 (an anti-clonotypic 2C TCR-specific mAb; mouse IgG1 isotype) (antibody)

lysis of T2 cells, pre-targeted assay, E:T 10:1, 51Cr release [1]: < 20%
re-directional lysis specific window (Ld-QL9-Ig/CD19 against Ld-QL9-Ig beads) [1]: < 15%
Substance: QL9 peptide loaded L^d-Ig dimer (from UniProt P61769 21-119) (peptide-MHC)

lysis of T2 cells, pre-targeted assay, E:T 10:1, 51Cr release [2]: < 40%
re-directional specific lysis window (Db-gp100-Ig/CD19 against Db-gp100-Ig beads) [2]: 5%
Substance: GP 100 peptide loaded D^b-Ig dimer (from UniProt P61769 21-119) (peptide-MHC)
